The numbers were not newly measured in PMC10612106, which cites them from elsewhere.

One may read the Kd as the concentration at which binding is half-saturated.

This data set concerns the target MORC3 ATPase domain (Homo sapiens) (UniProt Q14149).

MORC3 CW (from UniProt Q14149): the dissociation constant Kd was 9 µM.
